The target in experiment [1] is T1, human SLITRK6 extracellular domain linked to his tag (human, UniProt Q9H5Y7 27-608).
T1 construct: extracellular domain; also called huSLITRK6; Hu SLITRK6; not shown: his tag
Nature of the experiment: ELISA, coated antigen. Background: ELISA stands for enzyme-linked immunosorbent assay.

Experiment [2] has as its target T2, cynomolgus monkey SLITRK6 extracellular domain linked to his tag (cynomolgus monkey, UniProt G7PVK4 27-608).
T2 construct: extracellular domain; also called cynoSLITRK6; Cyno SLITRK6; not shown: his tag
As to the kind of experiment: ELISA, coated antigen.

Experiment [3] concerns the target T3, rat SLITRK6 (rat, UniProt D3ZP44 27-607).
T3 construct: extracellular domain; not shown: his tag
As to the kind of experiment: ELISA, coated antigen.

The target in experiment [4] is T4, human SLITRK6 on cells (human, UniProt Q9H5Y7 27-841).
T4 construct: whole, on cells
As to the kind of experiment: flow cytometry on RT4 cells. For orientation: Flow cytometry measures light scatter and fluorescence of single cells or particles in a stream.
Experimental: (§1) The binding activity of mAbs was evaluated by flow cytometer (Beckman, Cytoflex). Specifically, cells were incubated with 50 μL of mAbs or ADCs in series dilutions in PBS containing 1% BSA at 4° C. for 30 minutes. The cells were washed twice with PBS containing 1% BSA, stained with PE-conjugated anti human Fc in PBS containing 1% BSA and then incubated at 4° C. for 20 min. After that the cells were washed twice with PBS and analyzed by a flow cytometer.

The target in experiment [5] is T4, human SLITRK6 on cells. Nature of the experiment: flow cytometry on RT4 cells. This is another data set of the same source.
Experimental: (§2) The binding activity of mAbs and ADCs was evaluated by flow cytometer (Beckman, Cytoflex). Specifically, cells were incubated with 50 μL of mAbs or ADCs in series dilutions in PBS containing 1% BSA at 4° C. for 30 min. The cells were washed twice with PBS containing 1% BSA, stained with PE-conjugated anti human Fc in PBS containing 1% BSA and then incubated at 4° C. for 20 min. After that the cells were washed twice with PBS and analyzed by a flow cytometer.
Experiment [6] addresses T4, human SLITRK6 on cells. Nature of the experiment: flow cytometry on SCC-4 cells.
Experimental: as §1
In experiment [7] the target is T4, human SLITRK6 on cells. As to the kind of experiment: flow cytometry on SW780 cells.
Experimental: as §1
In experiment [8] the target is T4, human SLITRK6 on cells. Nature of the experiment: flow cytometry on SW780 cells. The source holds these as a separate data set.
Experimental: as §2
Experiment [9] concerns the target T4, human SLITRK6 on cells. Nature of the experiment: flow cytometry on CHP-212 cells.
Experimental: as §1
The target of experiment [10] is T4, human SLITRK6 on cells. Nature of the experiment: flow cytometry on CHP-212 cells. This is another data set of the same source.
Experimental: as §2
The target in experiment [11] is T4, human SLITRK6 on cells. As to the kind of experiment: flow cytometry on RT112/84 cells.
Experimental: as §1
Experiment [12] addresses T4, human SLITRK6 on cells. As to the kind of experiment: flow cytometry on 293F-SLITRK6-C9 cells.
Experimental: as §2
For experiment [13], the target named is T4, human SLITRK6 on cells. As to the kind of experiment: flow cytometry on 293F-huSLITRK6-C9 cells.
Experimental: The binding activity of mAbs was evaluated by flow cytometer (Beckman, Cytoflex). Specifically, cells were incubated with 50 μL of mAbs or ADCs in series dilutions in PBS containing 1% BSA at 4° C. for 30 min. The cells were washed twice with PBS containing 1% BSA, stained with PE-conjugated anti human Fc in PBS containing 1% BSA and then incubated at 4° C. for 20 min. After that the cells were washed twice with PBS and analyzed by a flow cytometer.
In experiment [14] the target is T1, human SLITRK6 extracellular domain …. Nature of the experiment: BLI; antigen ECD-his on anti-his tips, antibody as analyte; 1:1 fit. (Biolayer interferometry detects binding as a change in optical thickness at a sensor tip.)
Experimental: (§3) Binding kinetic of antibody-antigen was characterized by the bio-layer interferometry (BLI). 100 nM of SLITRK6′ extracellular domain linked to his tag was immobilized on anti-his biosensor tips (Fortebio). The sensors were rinsed with the buffer (50 mM Tris-AcOH, pH 6 or 7.5, 0.05% v/v surfactant P20) for 10 min to remove the unbound molecules, then dipped in the antibody solutions at different concentrations for 180 seconds and interspersed by a rinsing step in the buffer solution for 300 seconds. Binding affinity was calculated using ForteBio Data Acquisition 6.3 software (ForteBio) and was derived by fitting the kinetic data to a 1:1 Langmuir binding model utilizing global fitting algorithms. The dissociation or association equilibrium constant KD was calculated from the binding rate constants as KD=koff/kₒₙ(where koff and kₒₙ represent the dissociation kinetic constant and the association kinetic constant, respectively).
Experiment [15] deals with T2, cynomolgus monkey SLITRK6 extracellular …. Described as above.
Experimental: as §3
Experiment [16] addresses T1, human SLITRK6 extracellular domain …. Nature of the experiment: BLI binning on huSLITRK6-his; Ab1 = row antibody first, then Ab2 (competitor) = phA108.
Experimental: (§4) Epitope binning was characterized by the bio-layer interferometry (BLI). 100 nM of human SLITRK6′ extracellular domain linked to his tag was immobilized on anti-his biosensor tips (Fortebio). The sensors were rinsed with the buffer (50 mM Tris-AcOH, pH 6 or 7.5, 0.05% v/v surfactant P20) for 30 seconds to remove the unbound molecules, then dipped in the 100 nM of antibody 1 solutions for 180 seconds and interspersed by a rinsing step in the buffer solution for 300 seconds. After that, the sensors were dipped in the 100 nM of antibody 2 solutions. The epitope cluster was calculated using ForteBio Data Acquisition 6.3 software.
Experiment [17] shares this target. As to the kind of experiment: BLI binning on huSLITRK6-his; Ab1 = row antibody first, then Ab2 (competitor) = phA290.
Experimental: as §4
The target is the same in experiment [18]. Nature of the experiment: BLI binning on huSLITRK6-his; Ab1 = row antibody first, then Ab2 (competitor) = hu1H2-03.
Experimental: as §4
For experiment [19] the target is unchanged. Nature of the experiment: BLI binning on huSLITRK6-his; Ab1 = row antibody first, then Ab2 (competitor) = hu1H2-13.
Experimental: as §4
The target is the same in experiment [20]. Nature of the experiment: BLI binning on huSLITRK6-his; Ab1 = row antibody first, then Ab2 (competitor) = hu14G1-03.
Experimental: as §4
The target is the same in experiment [21]. As to the kind of experiment: BLI binning on huSLITRK6-his; Ab1 = row antibody first, then Ab2 (competitor) = Sirtratumab.
Experimental: as §4
Experiment [22] deals with T4, human SLITRK6 on cells. Nature of the experiment: flow cytometry on RT4 cells, PE-conjugated anti-human Fc.
Experimental: as §2
Experiment [23] addresses T4, human SLITRK6 on cells. As to the kind of experiment: flow cytometry on SW780 cells, PE-conjugated anti-human Fc.
Experimental: as §2
For experiment [24], the target named is T4, human SLITRK6 on cells. As to the kind of experiment: flow cytometry on RT4 cells, PE-conjugated anti-human Fc. This is another data set of the same source.
Experimental: (§5) Specifically, cells were incubated with 50 μL of mAbs or ADCs in series dilutions in PBS containing 1% BSA at 4° C. for 30 min. The cells were washed twice with PBS containing 1% BSA, stained with PE-conjugated anti human Fc in PBS containing 1% BSA and then incubated at 4° C. for 20 min. After that the cells were washed twice with PBS and analyzed by a flow cytometer.
Experiment [25] deals with T4, human SLITRK6 on cells. Nature of the experiment: flow cytometry on SW780 cells, PE-conjugated anti-human Fc. The source holds these as a separate data set.
Experimental: as §5
The target of experiment [26] is T4, human SLITRK6 on cells. As to the kind of experiment: flow cytometry on CHP-212 cells, PE-conjugated anti-human Fc.
Experimental: as §5
The target in experiment [27] is T4, human SLITRK6 on cells. Nature of the experiment: flow cytometry on KYSE-30 cells, PE-conjugated anti-human Fc.
Experimental: as §5
Experiment [28] deals with T5, mouse SLITRK6 (mouse, UniProt Q8C110 23-609).
T5 construct: extracellular domain; also called Mu SLITRK6; not shown: his tag
T5 sequence (Q8C110 23-609): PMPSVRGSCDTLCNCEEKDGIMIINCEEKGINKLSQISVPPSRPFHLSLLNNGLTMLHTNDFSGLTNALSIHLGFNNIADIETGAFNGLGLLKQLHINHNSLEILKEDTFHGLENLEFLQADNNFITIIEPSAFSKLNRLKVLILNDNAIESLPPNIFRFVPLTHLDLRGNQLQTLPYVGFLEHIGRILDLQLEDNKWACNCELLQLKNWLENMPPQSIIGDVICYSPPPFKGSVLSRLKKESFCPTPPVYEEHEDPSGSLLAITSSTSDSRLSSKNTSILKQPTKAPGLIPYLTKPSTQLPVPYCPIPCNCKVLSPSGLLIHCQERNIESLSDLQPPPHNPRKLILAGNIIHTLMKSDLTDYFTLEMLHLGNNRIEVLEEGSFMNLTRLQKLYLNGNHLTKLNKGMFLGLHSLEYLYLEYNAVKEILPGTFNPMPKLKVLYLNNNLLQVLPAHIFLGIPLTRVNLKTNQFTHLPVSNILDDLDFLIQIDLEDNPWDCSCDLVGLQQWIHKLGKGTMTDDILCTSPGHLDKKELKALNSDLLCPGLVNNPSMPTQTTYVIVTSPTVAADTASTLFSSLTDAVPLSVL
Nature of the experiment: BLI; antigen-his on anti-his tips, antibody or ADC as analyte; 1:1 fit.

Experiment [29] deals with T1, human SLITRK6 extracellular domain …. The experiment is described as above.
Experimental: (§6) Binding kinetic of antibody-antigen was characterized by the bio-layer interferometry (BLI). 100 nM of SLITRK6′ extracellular domain linked to his tag was immobilized on anti-his biosensor tips (Fortebio). The sensors were rinsed with the buffer (50 mM Tris-AcOH, pH 6 or 7.5, 0.05% v/v surfactant P20) for 10 min to remove the unbound molecules, then dipped in the antibody solutions at different concentrations for 180 seconds and interspersed by a rinsing step in the buffer solution for 300 seconds. Binding affinity was calculated using ForteBio Data Acquisition 6.3 software (ForteBio) and was derived by fitting the kinetic data to a 1:1 Langmuir binding model utilizing global fitting algorithms. The dissociation or association equilibrium constant KD was calculated from the binding rate constants as KD=koff/kₒₙ (where koff and kₒₙ represent the dissociation kinetic constant and the association kinetic constant, respectively).
Experiment [30] has as its target T2, cynomolgus monkey SLITRK6 extracellular …. The experiment is described as above.
Experimental: as §6
For experiment [31], the target named is T3, rat SLITRK6. Described as above.
Experimental: as §6
Experiment [32] deals with T4, human SLITRK6 on cells. As to the kind of experiment: flow cytometry on 293F-huSLITRK6 cells, PE-conjugated anti-human Fc.
Experimental: as §5
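Throughout, for koff: antibody at several concentrations, 180 s association then 300 s dissociation in Tris buffer at pH 6 or 7.5, rate constants from global fitting, KD computed as koff/kon.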
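Throughout, for kon: antibody at several concentrations, 180 s association then 300 s dissociation in Tris buffer at pH 6 or 7.5, rate constants from global fitting, KD computed as koff/kon.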

B1: phA290 (antibody, V domains shown)
VH: QVQLVQSGAEVKKPGASVKVSCKASGYTFTSYYMHWVRQAPGQGLEWMGIINPSGGSTSYAQKFQGRVTMTRDTSTSTVYMELSSLRSEDTAVYYCARGFTRYFDYWGQGTLVTVSA
VL: EIVMTQSPGTLSLSPGERATLSCRASQSVSKYLAWYQQRPGQAPRLLIYDASNRATGIPARFSGSGSGTDFTLTVSSLEPEDFAVYYCQQRYNWPLTFGGGTTVEIK
notes: From phage display, then full-length construction; Only the variable regions are tied to the name
In general, EC50 refers to the concentration needed to bring the measured effect to its halfway point. The Kd is the free concentration of one partner at which half of the binding sites on the other are occupied at equilibrium, for simple one-to-one binding. For B1, the EC50 was determined as 0.09 nM in experiment [1]; 0.06 nM in experiment [2]; 0.18 nM in experiment [3]; 0.14 nM in experiment [4]; 0.14 nM in [5]; 0.15 nM in [6]. Further, the half-maximal effective concentration (EC50) came to 0.27 nM in [7]; 0.27 nM in experiment [8]; 0.14 nM in experiment [9]; 0.16 nM in experiment [10]; 0.08 nM in experiment [11]; 1.16 nM in experiment [12]. The same molecule showed an EC50 in experiment [13] of 1.16 nM. Besides, the Kd in experiment [14] came out at 1.06 nM; in experiment [15] it was 3.14 nM.

B2: phA108 (antibody, V domains shown)
VH: QVQLVQSGAEVKKPGASVKVSCTASGYIFNDYYLHWVRQAPGQGLEWVGIINPSGGSPVYAQKFQGRVTMTRDTSTNTVYMELSSLRSEDTAVYYCARGMVRGVRLFDYWGQGTLVTVSA
VL: EIVLTQSPATLSLSPGERATLSCRASQSVSSYLAWYQQKPGQTPRLLIYDASNRATGVPARFSGSGSGTDFTLTISSLETEDFAVYYCQQRTNWPLTFGGGTKVEIK
notes: as for B1
Usually koff stands for the rate constant with which the complex falls apart. By kon is commonly meant the second-order rate constant of association. On to B2, for which the EC50 in [1] came to 0.05 nM; in experiment [2], 0.06 nM; in [3], 0.29 nM; in experiment [4], 0.1 nM; in experiment [5], 0.12 nM; in experiment [6], 0.18 nM. The EC50 in experiment [7] is 0.27 nM; in [8], 0.27 nM; in experiment [9] it was 0.14 nM; in experiment [10] it was 0.14 nM; in experiment [11] it was 0.1 nM; in experiment [12], 0.87 nM. The EC50 in experiment [13] turned out to be 0.87 nM. The Kd is 1.05 nM in [14] and 4.69 nM in experiment [15]. Also, the koff was found to be 0.000969 s⁻¹ in experiment [14] and 0.00379 s⁻¹ in experiment [15]. In addition, the kon in experiment [14] was 924000 M⁻¹ s⁻¹; in experiment [15], 809000 M⁻¹ s⁻¹. The epitope binning signal in [16] turned out to be 0.0346; in [17], 0.0375; in experiment [18] it was 0.292; in experiment [19], 0.285; in experiment [20] it was 0.274; in experiment [21] it was 0.276.

B3: hu1H2-03-LD343 (8) (antibody, V domains shown)
VH: EVQLVESGGGLVQPGGSLRLSCAASGFTFSDYGLHWVRQAPGKGLEWVSYISSGSSTVYFADTLKGRFTISRDNAKNSLYLQMNSLRAEDTAVYYCTRGTWYFDVWGRGTLVTVSS
VL: DIQMTQSPSSLSASVGDRVTITCRTSENIHSYLAWYQQKPGKSPQLLVYNAKTLADGVPSRFSGSGSGTDYTLTISSLQPEDFGTFYCQHFWTTSRTFGGGTKVEIK
modifications: drug-linker LD343 on cysteines freed by TCEP reduction, DAR 8.0; positions not given
The term EC50 (read off the curve) denotes the concentration at which the effect is half-maximal. In the case of B3, the “EC50 (read off the curve)” value in experiment [22] is ~0.4 nM; in [23] it was ~0.3 nM.

B4: hu14G1-03 (antibody, V domains shown)
VH: EVQLVESGGGLVQPGGSLRLSCAASGFTFSDYGMHWVRQAPGKGLEWVSYISPGSSTIYYADTMKGRFTISRDNAKNSLYLQMNSLRAEDTAVYYCARAYGGSYWYFAVWGQGTLVTVSS
VL: DIQMTQSPSSLSASVGDRVTITCRASGNIHSYLAWYQQKPGKSPQLLVYNAKTLADGVPSRFSGSGSGTDYTLTISSLQPEDFGTYYCQHFWSTPYTFGGGTKLEIK
For the molecule B4, the EC50 amounted to 0.04 nM in experiment [1]; 0.04 nM in experiment [2]; 0.32 nM in [4]; 0.38 nM in experiment [5]; 0.44 nM in experiment [6]; 0.61 nM in [7]. For the same molecule, the EC50 was found to be 0.62 nM in experiment [8]; 0.33 nM in experiment [9]; 0.37 nM in experiment [10]; 0.35 nM in experiment [11]; 1.77 nM in [12]; 1.77 nM in experiment [13]. Also, the values for the Kd in [14] and in [15] were 0.212 nM and 0.965 nM, respectively. Moreover, the dissociation rate constant (koff) in [14] is 8.26e-05 s⁻¹; in experiment [15] it was 0.000329 s⁻¹. Besides, the kon in experiment [14] turned out to be 390000 M⁻¹ s⁻¹; in [15] it was 341000 M⁻¹ s⁻¹. Further, the epitope binning signal in experiment [16] is 0.323; in experiment [17], 0.326; in [18], 0.0244; in experiment [19] it was 0.0268; in experiment [20], 0.0192; in [21], 0.293.

B5: AGS15E (antibody, V domains shown)
VH: QVQLVESGGGVVQPGRSLRLSCAASGFTFSSYGMHWVRQAPGKGLEWVAVIWYDGSNQYYADSVKGRFTISRDNSKNTLFLQMHSLRAEDTAVYYCARGLTSGRYGMDWGQGTTVTVSS
VL: DIVMTQSPLSLPVTPGEPASISCRSSQSLLLSHGFNYLDWYLQKPGQSPQLLIYLGSSRASGVPDRFSGSGSGTDFTLKISRVEAEDVGLYYCMQPLQIPWTFGQGTKVEIK
modifications: drug conjugate; drug-linker and positions not given
notes: also called ADC of Sirtratumab
For the molecule B5, the 50% effective concentration (EC50 (read off the curve)) was ~0.3 nM in experiment [24]; ~0.3 nM in [22]; ~0.3 nM in experiment [25]; ~0.2 nM in experiment [23]; ~0.2 nM in [26]; ~0.5 nM in [27]. Also, the concentration giving a half-maximal response (EC50 (read off the curve)) in experiment [32] was ~1 nM. The dissociation constant (Kd) in experiment [28] came to 1.9 nM; in experiment [29], 0.3 nM; in experiment [30] it was 0.87 nM; in [31], 1.2 nM.

For the origin of these results see patent publication US20250296992A1 (Genmab, published 2025).
